T1: Rap1V12 (Rap1-activated mutant) (human, UniProt P62834 1-184, limits assumed)
T1 construct: also called active Rap1V12
T1 chain: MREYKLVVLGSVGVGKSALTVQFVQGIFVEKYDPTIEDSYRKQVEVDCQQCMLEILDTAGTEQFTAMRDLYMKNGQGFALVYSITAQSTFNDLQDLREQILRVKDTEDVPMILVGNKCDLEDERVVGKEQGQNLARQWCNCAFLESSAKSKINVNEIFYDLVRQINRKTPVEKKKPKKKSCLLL

T2: GTP-Rap1 (human, UniProt P62833 1-184 (bovine entry), limits assumed)
T2 sequence: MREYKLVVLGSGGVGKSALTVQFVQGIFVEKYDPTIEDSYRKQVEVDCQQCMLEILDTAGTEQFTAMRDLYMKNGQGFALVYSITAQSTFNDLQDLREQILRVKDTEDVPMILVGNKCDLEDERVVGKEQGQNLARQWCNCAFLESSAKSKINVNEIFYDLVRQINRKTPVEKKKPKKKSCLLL

B1: human p30 (RAPL), wild type (other)
chain: MTVDSSMSSGYCSLDEELEDCFFTAKTTFFRNAQSKHLSKNVCKPVEETQRPPTLQEIKQKIDSYNTREKNCLGMKLSEDGTYTGFIKVHLKLRRPVTVPAGIRPQSIYDAIKEVNLAATTDKRTSFYLPLDAIKQLHISSTTTVSEVIQGLLKKFMVVDNPQKFALFKRIHKDGQVLFQKLSIADRPLYLRLLAGPDTEVLSFVLKENETGEVEWDAFSIPELQNFLTILEKEEQDKIQQVQKKYDKFRQKLEEALRESQGKPG
notes: also called hp30; wild type p30

Key:
[1] = target: Rap1 (of the BAF cells, in chemokine-stimulated migration); assay: cell-based or functional assay
[2] = target: T1, Rap1V12 (Rap1-activated mutant); assay: yeast two-hybrid screen, Rap1V12 as bait
Excerpt: To identify a molecule that associates with Rap1, the human leukocyte cDNA library was screened by a yeast two-hybrid method using a Rap1-activated mutant Rap1V12 as bait. As a result, a molecule that encodes a protein of a molecular weight of 30,000 having a Ras/Rap binding domain (RBD) was isolated and termed as p30 (FIG. 1). […] It was found from an analysis of the human genome database that p30 is an alternative splicing product of Norel. Mouse p30 cDNA was also isolated by a RT-PCR method.

GTP-Rap1 = target: T2, GTP-Rap1; assay: binding to GTP-Rap1, assay not detailed
[3] = target: B1; assay: association of Rap1V12 point mutants with p30, assay not detailed

Row | Binder | binding result [3] | also measured
1 | B1 | – | cell migration on ICAM-1 in the presence of SDF-1 (CXCL12) (20 nM) [1]: ~2 fold; binding result [2]: binds
2 | p30RBDm (RBD-domain mutant of p30) (other) MTVDSSMSSGYCSLDEELEDCFFTAKTTFFRNAQSKHLSKNVCKPVEETQRPPTLQEIKQKIDSYNTREKNCLGMKLSEDGTYTGFIKVHLKLRRPVTVPAGIRPQSIYDAIKEVNLAATTDAATSFYLPLDAIAQLHISSTTTVSEVIQGLLAAFMVVAAPQKFALFKRIHKDGQVLFQKLSIADRPLYLRLLAGPDTEVLSFVLKENETGEVEWDAFSIPELQNFLTILEKEEQDKIQQVQKKYDKFRQKLEEALRESQGKPG | – | binding result (GTP-Rap1): no binding
3 | Rap1V12 E37G (enzyme, Point mutation in the effector region of the active Rap1V12) MREYKLVVLGSVGVGKSALTVQFVQGIFVEKYDPTIGDSYRKQVEVDCQQCMLEILDTAGTEQFTAMRDLYMKNGQGFALVYSITAQSTFNDLQDLREQILRVKDTEDVPMILVGNKCDLEDERVVGKEQGQNLARQWCNCAFLESSAKSKINVNEIFYDLVRQINRKTPVEKKKPKKKSCLLL | binds | –
4 | Rap1V12 D38E (enzyme, Point mutation in the effector region of the active Rap1V12) MREYKLVVLGSVGVGKSALTVQFVQGIFVEKYDPTIEESYRKQVEVDCQQCMLEILDTAGTEQFTAMRDLYMKNGQGFALVYSITAQSTFNDLQDLREQILRVKDTEDVPMILVGNKCDLEDERVVGKEQGQNLARQWCNCAFLESSAKSKINVNEIFYDLVRQINRKTPVEKKKPKKKSCLLL | no binding | –
5 | Rap1V12 T35E (enzyme, Point mutation in the effector region of the active Rap1V12) MREYKLVVLGSVGVGKSALTVQFVQGIFVEKYDPEIEDSYRKQVEVDCQQCMLEILDTAGTEQFTAMRDLYMKNGQGFALVYSITAQSTFNDLQDLREQILRVKDTEDVPMILVGNKCDLEDERVVGKEQGQNLARQWCNCAFLESSAKSKINVNEIFYDLVRQINRKTPVEKKKPKKKSCLLL | no binding | –
6 | Rap1V12 Y40C (enzyme, Point mutation in the effector region of the active Rap1V12) MREYKLVVLGSVGVGKSALTVQFVQGIFVEKYDPTIEDSCRKQVEVDCQQCMLEILDTAGTEQFTAMRDLYMKNGQGFALVYSITAQSTFNDLQDLREQILRVKDTEDVPMILVGNKCDLEDERVVGKEQGQNLARQWCNCAFLESSAKSKINVNEIFYDLVRQINRKTPVEKKKPKKKSCLLL | no binding | –

— US20070031415A1 (published 2007)
